Target: monomeric SARS-CoV-2 RBD (S residues 332-534) with Flag peptide and 8xHis-tag (SARS-CoV-2 (WA1 strain), UniProt P0DTC2 332-534)
Assay: SPR

B1: hcAb 1.10 (Nb 1.10 fused to the human IgG1 hinge and Fc) (Fc fusion)
chain: QVQLVESGGGSVQAGGSLRLSCAASGYTYSTCRKGWYRQAPGKERELVASITADGATYYLDSVKGRLTISQDNAKNTVYLQMNSLKPEDTAVYYCAASVKDFTCTFNSWGQGTQVTVSS
Kd: 0.77 nM

B2: hcAb 1.29 (Nb 1.29 fused to the human IgG1 hinge and Fc) (Fc fusion)
chain: QVQLVESGGGSVQAGGSLRLSCAASGYTINTDAVAWFRQAPGKGDERVAVIYTGSGNTNYADSVKGRFTISQDNAKNTVYLQMNSLKPEDTALYYCASGYYGASGYDFNNWGQGTQVTVSS
Kd: 0.63 nM

B3: Nb 1.16, monomeric nanobody (VHH)
VHH: QVQLVESGGGSVQAGGSLRLSCAASGNTSKRKCVGWFRRAPGKEREGVTLIYTVGGSTVYADSVKGRFTISQDNAKDTVYLQMNSLKPEDSAMYYCAAESWGRQCNLETHRFTFWGQGTQVTVSS
Kd: 3.59 nM

B4: hcAb 1.16 (Nb 1.16 fused to the human IgG1 hinge and Fc) (Fc fusion)
chain: B3 VHH
Kd: 0.25 nM

B5: hcAb 1.26 (Nb 1.26 fused to the human IgG1 hinge and Fc) (Fc fusion)
chain: QVQLVESGGGLVQAGGSLRLSCAATGYTWSSVCMGWFRQAPGKEREGVAGIPSGRNRPYYADSVKGRFTISQDNAKNAVFLLMNSLKPEDTAIYYCAPCSAPHDPEYNYWGQGTQVTVSS
Kd: 0.08 nM

B6: hcAb 2.1 (Nb 2.1 fused to the human IgG1 hinge and Fc) (Fc fusion)
chain: QVQLVESGGGSVQAGGSLRLSCAAFGATISSAHMGWFRQAPGKEREGVAFRYTDGSSTYYTTSVRGRFTISQDNAKNTVYLQMNSLKPEDTAMYYCASNPSWGRLVGGQYNNWGQGTQITVSS
Kd: 0.36 nM

B7: Nb 2.1, monomeric nanobody (VHH)
VHH: B6 chain
Kd: 1.74 nM

B8: hcAb 2.20 (Nb 2.20 fused to the human IgG1 hinge and Fc) (Fc fusion)
chain: QVQLVESGGGSVQAGGSLRLSCAASGYTYNNYYMGWFRQAPGKEREGVAAINSDGLDTYVADSVKGRFTISRDNAKDTVHLQMNSLKPEDTAIYSCATGRTVYYSGYDFRLSVDDYWGQGTQVTVSS
Kd: 0.21 nM

B9: hcAb 2.15 (Nb 2.15 fused to the human IgG1 hinge and Fc) (Fc fusion)
chain: QVQLVESGGGSVQAGGSLKLSCAASGYASWARKCIGWFRQAPGQEREGVAAIFDFDGSTYYSDSVKGRFTISGDNAKNTVSLQMNSLLPKDTAVYYCTVAFGTCDNWYRGRGDYWGQGTQVTVSS
Kd: 0.08 nM

B10: Nb 2.15, monomeric nanobody (VHH)
VHH: B9 chain
Kd: 0.39 nM

B11: Nb 2.11, monomeric nanobody (VHH)
VHH: QVQLVESGGGSVQAGGSLRLSCAASGDASNRKCVSWFRRAPGKEREGVALIFPVGSSTAYADSVKGRFTISQDSAKDTVYLQMNNLKPEDSGTYYCAAVSWGGRCNLETQTVTFWGQGTQVTVSS
Kd: 2.17 nM

B12: hcAb 2.11 (Nb 2.11 fused to the human IgG1 hinge and Fc) (Fc fusion)
chain: B11 VHH
Kd: 0.16 nM

Reference: publication PMC9082315 (2022)
